This is an account of results in US20200164014A1, “MESENCHYMAL STEM CELL ATTRACTING AGENT” (Shiseido Company, Ltd., priority 2017, published 2020).

The test system of this test is young fibroblasts. The experiment in a line: Addition of aging factor proteins to young fibroblasts, quantitative RT-PCR. Type of test: cell-based. Particulars: protein added at 10 μg/ml vs 0 μg/ml, cultured 2 days. On the procedure:
Dermal fibroblasts collected from the back skin of an adult were cultured in Dulbecco's Modified Eagle Medium supplemented with 10% FBS. As normal fibroblasts (young fibroblasts), cells with a culture period of less than 1 month and a Pdl<30 were used. The same cells were cultured for 3 months or more and slowly proliferating cells (having a doubling time of less than 0.5/week and a Pdl>50) were used as the senescent fibroblasts. Normal fibroblasts were seeded in the upper layer of a six-well Transwell system (Falcon; Franklin Lakes, N.J.) filled with Dulbecco's Modified Eagle Medium supplemented with 10% FBS to a density of 1250 cells/cm^2. Sub-constructed senescent fibroblasts and normal fibroblasts were each seeded in two wells of the lower layer of the Transwell system. After combining the upper layer and the lower layer of the Transwell system for 2 days under a humidified atmosphere at 37° C. and 5% CO2, the cells in the upper layer and the cells in the lower layer were recovered using Qiazole (Qiagen).
From the recovered cell lysate, RNA was extracted using an RNeasy Protect Kit (Qiagen) according to the product description and […] into cDNA using Superscript VILO (Invitrogen) according to the product description. Real time PCR was performed on LightCycler (Roche) using […] as an internal standard and using primer pairs for the following genes. The cycle threshold (Ct value) calculated using Lightcycler software ver. 3.5 was normalized for each sample GAPDH mRNA.
Proteins of the candidate aging factors (IGFBP 7 and RSPO 4) (purchased from Serotec, R&D SYSTEMS) were added to a medium for culturing young fibroblasts at concentrations of 0 μg/ml and 10 μg/ml, cultured for 2 days, and the cells were collected using Qiazole (Qiagen). The recovered cell lysate was examined for the expression levels of MMP1 and collagen in the same manner as described above for quantitative RT-PCR. IGFBP7 and RSPO4 reduced the expression of collagen and increased the expression of MMP1.

B1: RSPO4: R-spondin family, member 4, purchased protein, candidate aging factor (protein, UniProt Q2I0M5 20-234, looked up)
R-spondin-4: LNRRKKQVGTGLGGNCTGCIICSEENGCSTCQQRLFLFIRREGIRQYGKCLHDCPPGYFGIRGQEVNRCKKCGATCESCFSQDFCIRCKRQFYLYKGKCLPTCPPGTLAHQNTRECQGECELGPWGGWSPCTHNGKTCGSAWGLESRVREAGRAGHEEAATCQVLSESRKCPIQRPCPGERSPGQKKGRKDRRPRKDRKLDRRLDVRPRQPGLQP
Regarding B1, the “expression of MMP1” value is “increased” and the expression of collagen entry is reported as “reduced”.

B2: IGFBP7: insulin-like growth factor binding protein 7, purchased protein, candidate aging factor (protein, UniProt Q16270 27-282, looked up)
Insulin-like growth …: SSSDTCGPCEPASCPPLPPLGCLLGETRDACGCCPMCARGEGEPCGGGGAGRGYCAPGMECVKSRKRRKGKAGAAAGGPGVSGVCVCKSRYPVCGSDGTTYPSGCQLRAASQRAESRGEKAITQVSKGTCEQGPSIVTPPKDIWNVTGAQVYLSCEVIGIPTPVLIWNKVKRGHYGVQRTELLPGDRDNLAIQTRGGPEKHEVTGWVLVSPLSKEDAGEYECHASNSQGQASASAKITVVDALHEIPVKKGEGAEL
For B2, the “expression of MMP1” value is “increased” and the expression of collagen result is recorded as “reduced”.
